Laboratory results published in article PMC5875921.

Key:
[1] = molecular target: HNH domain of NmeCas9 (Neisseria meningitidis) (UniProt C9X1G5); experiment: ITC
[2] = tested on: NmeCas9 (Neisseria meningitidis); experiment: fluorescence polarization; conditions: not given in the material (Methods absent)

Kd [1] | Substance | Kd [2]
6.3 nM | AcrIIC1 from Neisseria meningitidis (natural protein) | 
 | NmeCas9 sgRNA + target DNA | 71 nM
